Patent US20220387487A1, “COMPOSITIONS AND METHODS FOR TREATMENT OF CANCER” (Aleta Biotherapeutics Inc., priority 2019, published 2022)
Positions count from the first letter of the chain named. In names and notes the source's numbering stands.

B1: #321: purified fusion protein of CD19 variant and anti-CLL-1 VHH; SEQ ID NO:303 (protein)
chain: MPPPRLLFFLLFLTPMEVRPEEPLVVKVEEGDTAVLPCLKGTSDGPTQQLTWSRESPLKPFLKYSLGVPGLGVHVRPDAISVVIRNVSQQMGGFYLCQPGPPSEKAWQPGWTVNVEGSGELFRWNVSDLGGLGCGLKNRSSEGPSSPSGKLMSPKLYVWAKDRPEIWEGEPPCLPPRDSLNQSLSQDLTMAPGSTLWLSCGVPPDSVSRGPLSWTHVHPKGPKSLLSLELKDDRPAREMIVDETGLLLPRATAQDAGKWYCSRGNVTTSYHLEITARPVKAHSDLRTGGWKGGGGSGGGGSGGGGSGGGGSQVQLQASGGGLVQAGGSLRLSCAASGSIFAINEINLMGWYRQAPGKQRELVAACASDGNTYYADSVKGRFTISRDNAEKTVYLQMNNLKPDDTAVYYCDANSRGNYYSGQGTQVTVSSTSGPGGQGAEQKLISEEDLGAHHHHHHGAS
B2: W62T/F64R/F66Q: CD19 variant (protein)
chain: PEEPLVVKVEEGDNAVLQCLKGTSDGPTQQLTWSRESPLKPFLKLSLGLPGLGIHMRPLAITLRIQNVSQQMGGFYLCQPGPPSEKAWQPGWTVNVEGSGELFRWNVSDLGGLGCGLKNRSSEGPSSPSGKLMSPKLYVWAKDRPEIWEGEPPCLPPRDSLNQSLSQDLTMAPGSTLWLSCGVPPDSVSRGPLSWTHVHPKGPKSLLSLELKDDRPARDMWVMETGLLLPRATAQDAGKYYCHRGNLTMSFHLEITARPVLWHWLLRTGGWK
B3: W62G/F64V/F66K: CD19 variant (protein)
chain: B2 chain with T62G, R64V, Q66K
B4: W62S/F64F/F66N: CD19 variant (protein)
chain: B2 chain with T62S, R64F, Q66N
B5: W62S/F64V/F66S: CD19 variant (protein)
chain: B2 chain with T62S, R64V, Q66S
B6: E224G/G226G/L228I: CD19 variant (protein)
chain: B2 chain with T62W, R64F, Q66F, E224G, L228I
B7: W62D/F64V/F66M: CD19 variant (protein)
chain: B2 chain with T62D, R64V, Q66M
B8: L59N/I61I/L63I: CD19 variant (protein)
chain: B2 chain with L59N, T62W, L63I, R64F, Q66F
B9: E224E/G226E/L228V: CD19 variant (protein)
chain: B2 chain with T62W, R64F, Q66F, G226E, L228V
B10: E224G/G226S/L228M: CD19 variant (protein)
chain: B2 chain with T62W, R64F, Q66F, E224G, G226S, L228M
B11: W62E/F64C/F66S: CD19 variant (protein)
chain: B2 chain with T62E, R64C, Q66S
B12: W62S/F64R/F66R: CD19 variant (protein)
chain: B2 chain with T62S, Q66R
B13: E224G/G226A/L228V: CD19 variant (protein)
chain: B2 chain with T62W, R64F, Q66F, E224G, G226A, L228V
B14: W62W/F64V/F66A: CD19 variant (protein)
chain: B2 chain with T62W, R64V, Q66A
B15: W62N/F64L/F66P: CD19 variant (protein)
chain: B2 chain with T62N, R64L, Q66P
B16: W62T/F64V/F66F: CD19 variant (protein)
chain: B2 chain with R64V, Q66F
B17: W62R/F64A/F66F: CD19 variant (protein)
chain: B2 chain with T62R, R64A, Q66F
B18: W62T/F64M/F66S: CD19 variant (protein)
chain: B2 chain with R64M, Q66S
B19: W62H/F64F/F66R: CD19 variant (protein)
chain: B2 chain with T62H, R64F, Q66R
B20: W62T/F64V/F66R: CD19 variant (protein)
chain: B2 chain with R64V, Q66R
B21: L59N/I61V/L63L: CD19 variant (protein)
chain: B2 chain with L59N, I61V, T62W, R64F, Q66F
B22: W62E/F64R/F66R: CD19 variant (protein)
chain: B2 chain with T62E, Q66R
B23: W62T/F64A/F66S: CD19 variant (protein)
chain: B2 chain with R64A, Q66S
B24: W62G/F64V/F66R: CD19 variant (protein)
chain: B2 chain with T62G, R64V, Q66R
B25: W62Y/F64S/F66R: CD19 variant (protein)
chain: B2 chain with T62Y, R64S, Q66R
B26: W62S/F64V/F66A: CD19 variant (protein)
chain: B2 chain with T62S, R64V, Q66A
B27: E224G/G226R/L228I: CD19 variant (protein)
chain: B2 chain with T62W, R64F, Q66F, E224G, G226R, L228I
B28: E224G/G226R/L228V: CD19 variant (protein)
chain: B2 chain with T62W, R64F, Q66F, E224G, G226R, L228V
B29: E224G/G226S/L228V: CD19 variant (protein)
chain: B2 chain with T62W, R64F, Q66F, E224G, G226S, L228V
B30: W62H/F64V/F66S: CD19 variant (protein)
chain: B2 chain with T62H, R64V, Q66S
B31: W62S/F64V/F66R: CD19 variant (protein)
chain: B2 chain with T62S, R64V, Q66R
B32: W62R/F64V/F66R: CD19 variant (protein)
chain: B2 chain with T62R, R64V, Q66R
B33: E224D/G226V/L228V: CD19 variant (protein)
chain: B2 chain with T62W, R64F, Q66F, E224D, G226V, L228V
B34: E224G/G226V/L228V: CD19 variant (protein)
chain: B2 chain with T62W, R64F, Q66F, E224G, G226V, L228V
B35: E224G/G226A/L228T: CD19 variant (protein)
chain: B2 chain with T62W, R64F, Q66F, E224G, G226A, L228T
B36: W62D/F64V/F66R: CD19 variant (protein)
chain: B2 chain with T62D, R64V, Q66R
B37: W62D/F64A/F66S: CD19 variant (protein)
chain: B2 chain with T62D, R64A, Q66S
B38: W62W/F64T/F66A: CD19 variant (protein)
chain: B2 chain with T62W, R64T, Q66A
B39: W62D/F64V/F66S: CD19 variant (protein)
chain: B2 chain with T62D, R64V, Q66S
B40: W62E/F64E/F66V: CD19 variant (protein)
chain: B2 chain with T62E, R64E, Q66V

Assays:
CLEC12A = test: ELISA binding of fusion proteins (FMC63 coat, HRP-anti-His detection); set-up: species or system human; conditions: purified fusion protein, FMC63 coat; read-out: CLEC12A binding (ELISA EC50)
Method: The binding of the biparatopic fusion proteins to CLEC12A was also examined by ELISA. […] The plate was left to incubate overnight at 4° C. The coated plate was blocked with TBS/0.3% nonfat dry milk (NFD) for 60 minutes at RT.

FMC63 = test: CD19 variant binding to anti-CD19 antibody FMC63 (score); conditions: Table 1B, CD19 triple mutants
Sequence of FMC63 (as listed by the source): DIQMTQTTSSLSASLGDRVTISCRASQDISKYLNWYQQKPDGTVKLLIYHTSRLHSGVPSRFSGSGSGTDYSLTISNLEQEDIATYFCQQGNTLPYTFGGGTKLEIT
Sequence of FMC63 (as listed by the source): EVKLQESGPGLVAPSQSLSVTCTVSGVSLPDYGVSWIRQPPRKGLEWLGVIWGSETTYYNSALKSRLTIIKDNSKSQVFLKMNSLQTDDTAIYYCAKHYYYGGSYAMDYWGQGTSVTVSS

Sequence of CLEC12A (as listed by the source): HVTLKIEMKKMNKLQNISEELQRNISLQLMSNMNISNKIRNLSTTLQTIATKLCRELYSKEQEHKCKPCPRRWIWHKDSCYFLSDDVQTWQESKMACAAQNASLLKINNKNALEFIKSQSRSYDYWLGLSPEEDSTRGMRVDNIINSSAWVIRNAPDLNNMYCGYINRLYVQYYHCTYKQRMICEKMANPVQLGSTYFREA

Molecule | EC50 (CLEC12A) [nM] | FMC63 Binding Score (FMC63)
B1 | 0.09 | 
B2 |  | 16.3 ± 5.5
B3 |  | 12.3 ± 2.3
B4 |  | 15.6 ± 5.6
B5 |  | 15.4 ± 2.8
B6 |  | 11.2 ± 1.2
B7 |  | 16. ± 5.6
B8 |  | 15.6 ± 5.6
B9 |  | 11.6 ± 1.2
B10 |  | 13.8 ± 3.4
B11 |  | 12.6 ± 2.3
B12 |  | 13.7 ± 1.9
B13 |  | 10.8 ± .8
B14 |  | 13.7 ± 3.2
B15 |  | 15.6 ± 5.6
B16 |  | 13.6 ± 3.2
B17 |  | 15.9 ± 5.6
B18 |  | 15.7 ± 5.6
B19 |  | 12.4 ± 2.3
B20 |  | 12.2 ± 2.1

Molecule | EC50 (CLEC12A) [nM] | FMC63 Binding Score (FMC63)
B21 |  | 13.9 ± 3.2
B22 |  | 12.4 ± 2.1
B23 |  | 15.7 ± 5.6
B24 |  | 14.1 ± 1.9
B25 |  | 13.7 ± 3.2
B26 |  | 13.5 ± 3.2
B27 |  | 12. ± 2.
B28 |  | 11. ± .9
B29 |  | 11.2 ± 1.1
B30 |  | 14. ± 4.
B31 |  | 11.8 ± 1.7
B32 |  | 12.3 ± 1.6
B33 |  | 13.8 ± 3.4
B34 |  | 11.2 ± 1.
B35 |  | 12.7 ± 2.4
B36 |  | 12.6 ± 2.3
B37 |  | 15.5 ± 5.6
B38 |  | 13.9 ± 4.
B39 |  | 13.3 ± 3.2
B40 |  | 16.2 ± 5.5
